In patent US8541373B2, “BChE albumin fusions for the treatment of cocaine abuse” (priority 2009, dated 2013):
“And” between values parts separate entries of the source, which are not always exact repeats. Equal values may be shown once.

Assay: AlbuBChE serum pharmacokinetics after single IM dose (ELISA)
Procedure: The study included a total of 11 naïve, adult male cynomolgus monkeys divided into four dose groups: • a control group of two cynomologus monkeys that only received a single IV dose of cocaine; • three dose groups that were treated with a single IM dose of AlbuBChE at 0.2, 1 or 5 mg/kg. Three naïve, adult male cynomolgus monkeys were used in each dose group. Following AlbuBChE treatment, a 1 mg/kg IV dose of cocaine was administered at 2, 48, 96, 120, and 240 hours after AlbuBChE dose administration.
A single intramuscular (IM) administration of AlbuBChE was administered on study day 1 and blood was collected at the time points outlined in Table 2. Approximately 0.5 mL of whole blood was collected from the femoral vein into serum separate tubes (SST).
Blocking is done with 2% Casein in 1×PBS, 200 μL/well, 2 hours at room temperature. After washing, 100 μL of diluted serum samples are added to the plates along with standards. Standards are generated through 3.64 fold, serial dilution of AlbuBChE from 2000 to 3.1 ng/mL. Serum samples and standards are maintained at 10% serum by dilution with buffer containing pooled cynomolgus monkey serum. A wash step precedes detection with 100 μL of anti-HSA mAb-6502-HRP at 0.04 μg/mL for 1 hour. Wells are washed again, prior to developing with 100 μl of TMB substrate. After 15 minutes, the reaction is terminated with 100 μL/well of 1N H2SO4 and read on SpectraMax plate reader at 450/570 nm. Values for unknown serum samples are calculated by interpolation of standard curve generated by 4-parameter fit of AlbuBChE standards. The limit of quantitation in cynomolgus serum was 21.1 ng/mL.
AlbuBChE pharmacokinetic parameter values were determined using serum concentration-time profiles for individual animals. The computer software WinNonlin Professional (Version 4.0.1 Pharsight Corporation, USA) was used. Specifically the model for non-compartmental analysis with extravascular input was applied. If there were fewer than 3 data points in the terminal phase of the serum concentration curve, a terminal phase half-life and PK parameters derived from the half-life were not calculated for that profile. Parameters analyzed include tmax, Cmax, t1/2, AUC(0-t) and AUC(0-∞) were calculated.

For AlbuBChE, the “AUC % Extrap, individual animals” value (0.2 mg/kg IM) was 19.3% and 18.8% and 14.1%, the “AUC(0-t), individual animals” value (0.2 mg/kg IM) was 2746 ng·h/mL and 7878 ng·h/mL and 8479 ng·h/mL and the “AUC(0-∞), individual animals” value (0.2 mg/kg IM) was 3404 ng·h/mL and 9704 ng·h/mL and 9867 ng·h/mL. The “Cmax, individual animals” value (0.2 mg/kg IM) was 176 ng/mL and 279 ng/mL and 281 ng/mL, the “Dose Normalized AUC(0-∞)” value (0.2 mg/kg IM) was 38292 and the “Dose Normalized Cmax” value (0.2 mg/kg IM) was 1226. The “Mean AUC % Extrap” value (0.2 mg/kg IM) was 17.4%, the “Mean AUC(0-t)” value (0.2 mg/kg IM) was 6368 ng·h/mL and the “Mean AUC(0-∞)” value (0.2 mg/kg IM) was 7658 ng·h/mL. The “Mean Cmax” value (0.2 mg/kg IM) was 245 ng/mL, the “Mean t½” value (0.2 mg/kg IM) was 27.2 h and the “Tmax, individual animals” value (0.2 mg/kg IM) was 3 h. The “t½, individual animals” value (0.2 mg/kg IM) was 15.3 h and 42.1 h and 24.4 h, the “AlbuBChE serum concentration, individual animals” value (0.2 mg/kg IM, 1 hr post dose) was 37.1 ng/mL and 235.4 ng/mL and 111.0 ng/mL and the “Mean AlbuBChE serum concentration” value (0.2 mg/kg IM, 1 hr post dose) was 128 ng/mL. For the same substance, the “AlbuBChE serum concentration, individual animals” value (0.2 mg/kg IM, 3 hr post dose) was 176.1 ng/mL and 278.5 ng/mL and 280.7 ng/mL, the “Mean AlbuBChE serum concentration” value (0.2 mg/kg IM, 3 hr post dose) was 245 ng/mL and the “AlbuBChE serum concentration, individual animals” value (0.2 mg/kg IM, 6 hr post dose) was 144.0 ng/mL and 212.1 ng/mL and 272.4 ng/mL. For the same substance, the “Mean AlbuBChE serum concentration” value (0.2 mg/kg IM, 6 hr post dose) was 210 ng/mL, the “AlbuBChE serum concentration, individual animals” value (0.2 mg/kg IM, 12 hr post dose) was 88.4 ng/mL and 143.1 ng/mL and 197.9 ng/mL and the “Mean AlbuBChE serum concentration” value (0.2 mg/kg IM, 12 hr post dose) was 143 ng/mL. For the same substance, the “AlbuBChE serum concentration, individual animals” value (0.2 mg/kg IM, 24 hr post dose) was 52.3 ng/mL and 95.2 ng/mL and 135.7 ng/mL, the “Mean AlbuBChE serum concentration” value (0.2 mg/kg IM, 24 hr post dose) was 94.4 ng/mL and the “AlbuBChE serum concentration, individual animals” value (0.2 mg/kg IM, 36 hr post dose) was 29.8 ng/mL and 68.3 ng/mL and 87.4 ng/mL. The “Mean AlbuBChE serum concentration” value (0.2 mg/kg IM, 36 hr post dose) was 61.8 ng/mL, the “AlbuBChE serum concentration, individual animals” value (0.2 mg/kg IM, 48 hr post dose) was “<LLOQ and 66.4 ng/mL and 80.7 ng/mL” and the “Mean AlbuBChE serum concentration” value (0.2 mg/kg IM, 48 hr post dose) was 73.6 ng/mL. The “AlbuBChE serum concentration, individual animals” value (0.2 mg/kg IM, 72 hr post dose) was “<LLOQ and 44.5 ng/mL and 39.5 ng/mL”, the “Mean AlbuBChE serum concentration” value (0.2 mg/kg IM, 72 hr post dose) was 42.0 ng/mL and the “AlbuBChE serum concentration, individual animals” value (0.2 mg/kg IM, 96 hr post dose) was “<LLOQ (2×) and 30.1 ng/mL”. The “Mean AlbuBChE serum concentration” value (0.2 mg/kg IM, 96 hr post dose) was “<LLOQ”, the “AlbuBChE serum concentration, individual animals” value (0.2 mg/kg IM, 128 hr post dose) was “<LLOQ” and the “Mean AlbuBChE serum concentration” value (0.2 mg/kg IM, 128 hr post dose) was “<LLOQ”. The “AlbuBChE serum concentration, individual animals” value (0.2 mg/kg IM, 144 hr post dose) was “<LLOQ”, the “Mean AlbuBChE serum concentration” value (0.2 mg/kg IM, 144 hr post dose) was “<LLOQ” and the “AlbuBChE serum concentration, individual animals” value (0.2 mg/kg IM, 168 hr post dose) was “<LLOQ”. The “Mean AlbuBChE serum concentration” value (0.2 mg/kg IM, 168 hr post dose) was “<LLOQ”, the “AlbuBChE serum concentration, individual animals” value (0.2 mg/kg IM, 216 hr post dose) was “<LLOQ” and the “Mean AlbuBChE serum concentration” value (0.2 mg/kg IM, 216 hr post dose) was “<LLOQ”. For the same substance, the “AlbuBChE serum concentration, individual animals” value (0.2 mg/kg IM, 264 hr post dose) was “<LLOQ”, the “Mean AlbuBChE serum concentration” value (0.2 mg/kg IM, 264 hr post dose) was “<LLOQ” and the tmax (0.2 mg/kg IM, group value) was 3 h. For the same substance, the “AUC % Extrap, individual animals” value (1 mg/kg IM) was 2.54% and 3.67% and 2.90%, the “AUC(0-t), individual animals” value (1 mg/kg IM) was 43128 ng·h/mL and 51298 ng·h/mL and 46185 ng·h/mL and the “AUC(0-∞), individual animals” value (1 mg/kg IM) was 44251 ng·h/mL and 53255 ng·h/mL and 47564 ng·h/mL. The “Cmax, individual animals” value (1 mg/kg IM) was 1666 ng/mL and 1374 ng/mL and 1956 ng/mL, the “Tmax, individual animals” value (1 mg/kg IM) was 3 h and the “t½, individual animals” value (1 mg/kg IM) was 28.4 h and 34.3 h and 30.3 h. For the same substance, the “Dose Normalized AUC(0-∞)” value (1.0 mg/kg IM) was 48357, the “Dose Normalized Cmax” value (1.0 mg/kg IM) was 1665 and the “Mean AUC % Extrap” value (1.0 mg/kg IM) was 3.04%. The “Mean AUC(0-t)” value (1.0 mg/kg IM) was 46871 ng·h/mL, the “Mean AUC(0-∞)” value (1.0 mg/kg IM) was 48357 ng·h/mL and the “Mean Cmax” value (1.0 mg/kg IM) was 1665 ng/mL. For the same substance, the “Mean t½” value (1.0 mg/kg IM) was 31 h, the “AlbuBChE serum concentration, individual animals” value (1.0 mg/kg IM, 1 hr post dose) was 1058.9 ng/mL and 462.4 ng/mL and 1598.6 ng/mL and the “Mean AlbuBChE serum concentration” value (1.0 mg/kg IM, 1 hr post dose) was 1040 ng/mL. For the same substance, the “AlbuBChE serum concentration, individual animals” value (1.0 mg/kg IM, 3 hr post dose) was 1665.5 ng/mL and 1374.0 ng/mL and 1956.0 ng/mL, the “Mean AlbuBChE serum concentration” value (1.0 mg/kg IM, 3 hr post dose) was 1665 ng/mL and the “AlbuBChE serum concentration, individual animals” value (1.0 mg/kg IM, 6 hr post dose) was 1269.3 ng/mL and 1266.3 ng/mL and 1596.1 ng/mL. For the same substance, the “Mean AlbuBChE serum concentration” value (1.0 mg/kg IM, 6 hr post dose) was 1377 ng/mL, the “AlbuBChE serum concentration, individual animals” value (1.0 mg/kg IM, 12 hr post dose) was 884.3 ng/mL and 968.1 ng/mL and 1049.5 ng/mL and the “Mean AlbuBChE serum concentration” value (1.0 mg/kg IM, 12 hr post dose) was 967 ng/mL.
